According to the supplement of paper PMC9112550, “Optimization of the antimicrobial peptide Bac7 by deep mutational scanning” (BMC Biology, 2022):

System: Escherichia coli TOP10
Experiment: shrunken log2 fold change of peptide-encoding DNA abundance (4.5 h post-induction vs induction); higher = less antimicrobial activity (less host growth inhibition)
Conditions: time post-induction: 4.5 h; library: site-saturation at positions 5, 18, 19, 20
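Note: peptides expressed intracellularly from a pBAD plasmid library in pooled LB shake-flask culture, induced with 0.3% L-arabinose, DNA abundance read by NGS, three biological replicates, DESeq2 with apeglm shrinkage.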

Sequence	shrunken log2 fold change
RRIRKRPPRLPRPRPRPQQNPRP	0.157
RRIRARPPRLPRPRPRPDRQPRP	0.0329
RRIRGRPPRLPRPRPRPTYHPRP	0.0704
RRIRPRPPRLPRPRPRPDGTPRP	-0.122
RRIRIRPPRLPRPRPRPDWVPRP	0.135
RRIRRRPPRLPRPRPRPVHPPRP	0.348
RRIRDRPPRLPRPRPRPKQMPRP	0.113
RRIRCRPPRLPRPRPRPLHRPRP	0.06
RRIRDRPPRLPRPRPRPCALPRP	-0.0616
RRIRSRPPRLPRPRPRPLCYPRP	-0.535
RRIRCRPPRLPRPRPRPKDYPRP	-0.644
RRIRARPPRLPRPRPRPWKFPRP	-0.00178
RRIRPRPPRLPRPRPRPVQFPRP	0.197
RRIRVRPPRLPRPRPRPYFWPRP	-0.395
RRIRHRPPRLPRPRPRPSQGPRP	0.0306
RRIRYRPPRLPRPRPRPVEEPRP	-0.32
RRIRLRPPRLPRPRPRPTVYPRP	-0.146
RRIRFRPPRLPRPRPRPNWGPRP	0.0529
RRIRYRPPRLPRPRPRPSIMPRP	-1.54
RRIRDRPPRLPRPRPRPQFRPRP	-0.296
RRIRIRPPRLPRPRPRPGPQPRP	0.0436

Sequence	shrunken log2 fold change
RRIRARPPRLPRPRPRPPGWPRP	1.22
RRIRARPPRLPRPRPRPIECPRP	0.157
RRIRHRPPRLPRPRPRPYFYPRP	-0.881
RRIRHRPPRLPRPRPRPESGPRP	-0.0115
RRIRPRPPRLPRPRPRPEVIPRP	0.0141
RRIRPRPPRLPRPRPRPSCGPRP	0.137
RRIRQRPPRLPRPRPRPHCIPRP	0.0493
RRIRGRPPRLPRPRPRPPQKPRP	1.35
RRIRKRPPRLPRPRPRPHMMPRP	0.217
RRIRRRPPRLPRPRPRPFAMPRP	0.0854
RRIRWRPPRLPRPRPRPMQNPRP	0.459
RRIRKRPPRLPRPRPRPENEPRP	0.918
RRIRCRPPRLPRPRPRPLDPPRP	-0.122
RRIRMRPPRLPRPRPRPRHCPRP	0.28
RRIRKRPPRLPRPRPRPRLTPRP	0.501
RRIRLRPPRLPRPRPRPYKGPRP	-0.027
RRIRFRPPRLPRPRPRPERTPRP	-0.0923
RRIRERPPRLPRPRPRPSIPPRP	-0.758
RRIRYRPPRLPRPRPRPLIPPRP	-0.671
RRIRDRPPRLPRPRPRPADCPRP	-0.0601
RRIRYRPPRLPRPRPRPSWWPRP	-0.511

Sequence	shrunken log2 fold change
RRIRCRPPRLPRPRPRPCDQPRP	0.143
RRIRTRPPRLPRPRPRPEHGPRP	0.0391
RRIRERPPRLPRPRPRPGYSPRP	-0.00468
RRIRFRPPRLPRPRPRPEDSPRP	-0.00878
RRIRQRPPRLPRPRPRPAIRPRP	-0.0284
RRIRGRPPRLPRPRPRPDVWPRP	1.36
RRIRVRPPRLPRPRPRPPMEPRP	-0.172
RRIRWRPPRLPRPRPRPRYNPRP	-0.396
RRIRSRPPRLPRPRPRPMRIPRP	0.0732
RRIRWRPPRLPRPRPRPLSMPRP	-0.159
RRIRCRPPRLPRPRPRPVADPRP	0.181
RRIRIRPPRLPRPRPRPSPSPRP	0.0467
RRIRHRPPRLPRPRPRPVQYPRP	0.00489
RRIRGRPPRLPRPRPRPQSMPRP	0.276
RRIRWRPPRLPRPRPRPMTDPRP	0.0543
RRIRARPPRLPRPRPRPAIYPRP	-0.0399
RRIRLRPPRLPRPRPRPKWSPRP	-0.171
RRIRGRPPRLPRPRPRPNFYPRP	0.22
RRIRWRPPRLPRPRPRPQSSPRP	-0.276
RRIRGRPPRLPRPRPRPIFFPRP	0.237
